Results reported in US20200308270A1 (Zymeworks, published 2020).

T1: human recombinant FcgammaR receptor CD32aR (human, UniProt P12318 34-217, limits assumed)
T1 sequence (looked up): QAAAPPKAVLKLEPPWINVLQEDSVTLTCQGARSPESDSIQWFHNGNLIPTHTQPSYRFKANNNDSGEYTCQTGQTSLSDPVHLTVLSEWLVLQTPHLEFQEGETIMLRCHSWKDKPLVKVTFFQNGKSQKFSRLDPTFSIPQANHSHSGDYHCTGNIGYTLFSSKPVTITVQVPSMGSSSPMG

T2: recombinant human sFas receptor (human, UniProt P25445 17-173, limits assumed)
T2 construct: Bought reagent
T2 sequence (looked up): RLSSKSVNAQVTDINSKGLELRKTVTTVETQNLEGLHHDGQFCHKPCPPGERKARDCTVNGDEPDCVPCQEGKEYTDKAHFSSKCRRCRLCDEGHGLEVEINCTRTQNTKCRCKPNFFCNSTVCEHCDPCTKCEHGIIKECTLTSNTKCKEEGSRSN


Assays:
[1] = target: T1, human recombinant FcgammaR receptor …; assay: SPR (ProteOn), Mab captured via anti-human Fc, FcgammaR analyte
Procedure: (§1) Goat polyclonal anti-human Fc antibody was purchased from Jackson Immuno Research Laboratories Inc. (West Grove, Pa.). […] Human recombinant FcγR receptors: CD16aV, CD32bF, CD32aR, and CD32aH were expressed as constructs containing a His10-tag at the C-terminus and purified by Ni-affinity chromatography followed by His-tag removal and SEC purification.
(§2) FcγR affinity determination was carried out as follows. The screening of Mabs for binding to various FcγR receptors occurred in two steps: an indirect capture of Mab samples onto the anti-human Fc-specific polyclonal antibody surface, followed by the injection of five concentrations of each of FcγR receptors. The anti-human Fc surface was prepared on a GLC sensorchip by amine coupling. GLC sensorchip surface was activated by a 1:10 dilution of the standard BioRad sNHS/EDC solutions injected for 140s at 100 μL/min in the analyte (horizontal) direction. Immediately after the activation, 25 microg/mL solution of anti-human Fc in 10 mM NaOAc pH 4.5 was injected in the analyte direction at a flow rate of 25 microL/min for 240s until approximately 4500 or 2500 resonance units (RUs) were immobilized. Remaining active groups were quenched by a 300s injection of 1M ethanolamine at 30 μL/min also in the analyte direction. Mabs for analysis were indirectly captured onto the anti-human Fc surface by injecting 10 microg/ml solutions in the ligand (vertical) direction at a flow rate of 25 microL/min for 240s. Each of the FcγR receptors was subsequently injected in the analyte (horizontal) direction. Firstly, two buffer injections for 30s at 100 microL/min in the analyte (horizontal) direction were used to stabilize the baseline. Five concentrations of a three-fold dilution series of each of the four FcγR receptors starting at 10 μM with a blank buffer control were then simultaneously injected at 50 microL/min for 120 s with a 3 minute dissociation phase, resulting in a set of binding sensorgrams with a buffer reference. […] Sensorgrams were aligned and double-referenced using the buffer blank injection and interspots, and the resulting sensorgrams were analyzed using ProteOn Manager software v3.1.

[2] = target: human recombinant FcgammaR receptor CD16aV (human, UniProt P08637 17-208, limits assumed); assay: as above
Chain of human recombinant FcgammaR receptor CD16aV (P08637 17-208 F176V limits assumed): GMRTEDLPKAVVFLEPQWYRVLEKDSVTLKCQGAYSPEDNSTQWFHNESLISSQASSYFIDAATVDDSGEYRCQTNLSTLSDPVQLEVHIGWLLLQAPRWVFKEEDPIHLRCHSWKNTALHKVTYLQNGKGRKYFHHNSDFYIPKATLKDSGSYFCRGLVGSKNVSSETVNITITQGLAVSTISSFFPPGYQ
Procedure: as §1, §2

human recombinant FcRn = target: T3, human recombinant FcRn (human, UniProt P55899 24-297; P61769 21-119, limits assumed); assay: SPR (ProteOn), FcRn immobilized, Mab analyte, pH 5.8
T3 construct: also called neonatal receptor
Procedure: FcRn affinity determination was carried out as follows. FcRn surface was generated using a GLC sensorchip activated by a 1:10 dilution of the standard BioRad sNHS/EDC solutions injected for 140s at 100 μL/min in the ligand (vertical) direction. Immediately after the activation, 10 microg/mL solution of FcRn in 10 mM NaOAc pH 4.5 was injected in the ligand (vertical) direction at a flow rate of 25 microL/min for 120s until approximately 2000 resonance units (RUs) were immobilized. Remaining active groups were quenched by a 140s injection of 1M ethanolamine at 30 μL/min also in the ligand direction. The running buffer used on the FcRn surface was PBST pH 5.8. The screening of the Mabs for binding to FcRn was performed by injection of purified Mabs in the analyte (horizontal) direction. Firstly, two buffer injections for 30s at 100 microL/min in the analyte (horizontal) direction were used to stabilize the baseline. Five concentrations of a three-fold dilution series of each Mab starting at 100 nM with a blank buffer control were simultaneously injected at 50 microL/min for 120 s with a 10 minute dissociation phase, resulting in a set of binding sensorgrams with a buffer reference. […] Sensorgrams were aligned and double-referenced using the buffer blank injection and interspots, and the resulting sensorgrams were analyzed using ProteOn Manager software v3.1. The double-referenced sensorgrams were fit to the Langmuir binding model.

recombinant human HER3 [3] = target: T4, recombinant human HER3 (human, UniProt P21860 20-643); assay: SPR
T4 construct: Bought reagent

recombinant human HER3 [4] = target: T4, recombinant human HER3; assay: SPR (ProteOn), Mab captured via anti-human Fc, HER3 analyte
Procedure: HER3 affinity determination in Mabs was carried out as follows. The screening of Mabs for binding to HER3 antigen occurred in two steps: an indirect capture of Mabs onto the anti-human Fc-specific polyclonal antibody surface, followed by the injection of five concentrations of HER3. The anti-human Fc surface was prepared on a GLC sensorchip by amine coupling. GLC sensorchip surface was activated by a 1:10 dilution of the standard BioRad sNHS/EDC solutions injected for 140s at 100 pt/min in the analyte (horizontal) direction. Immediately after the activation, 25 microg/mL solution of anti-human Fc in 10 mM NaOAc pH 4.5 was injected in the ligand (vertical) direction at a flow rate of 25 microL/min for 240s until approximately 3000 resonance units (RUs) were immobilized. Remaining active groups were quenched by a 140s injection of 1M ethanolamine at 100 μL/min also in the analyte direction. Mabs for analysis were indirectly captured onto the anti-Fc surface by injecting 20 microg/mL solutions in the ligand (vertical) direction at a flow rate of 25 microL/min for 240s. HER3 was subsequently injected in the analyte (horizontal) direction. Firstly, two buffer injections for 30s at 100 microL/min in the analyte (horizontal) direction were used to stabilize the baseline. […] Sensorgrams were aligned and double-referenced using the buffer blank injection and interspots, and the resulting sensorgrams were analyzed using ProteOn Manager software v3.1. The double-referenced sensorgrams were fit to the Langmuir binding model.

[5] = target: T2, recombinant human sFas receptor; assay: SPR (Biacore T200), Fas immobilized, Fab analyte
Procedure: Fas affinity determination was carried out as follows. Fas was diluted in 10 mM acetate buffer pH 5.5 and directly immobilized via amine coupling onto a CMS Series S sensor chip. […] The reference flow cell was left empty (ethanolamine blocked) to use as a blank control. Fabs were injected over both the ethanolamine-blocked reference surface and the Fas surface for kinetic analysis using single cycle kinetics. […] Fas surfaces were regenerated using 2 cycles of 10 mM glycine pH 1.5 for 120 s at 30 pt/min to prepare the surfaces for the next injection cycle. At least two mock-buffer injections were performed for each analyte injection to be used for referencing. The resulting single cycle kinetics sensorgrams were analyzed using Biacore T200 BiaEvaluation software version 3.0 and fit to the 1:1 binding model.

Binder | Kd [5] [nM] | also measured
H3 Vlambda-Ckappa chimeric Mab (antibody, human IgG1, kappa, IgG1 Mab format; chimeric light chain without stabilizing substitutions; also called chimera) heavy: not shown light: QSALTQPASVSGSPGQSITISCTGTSSDVGGYNFVSWYQQHPGKAPKLMIYDVSDRPSGVSDRFSGSKSGNTASLIISGLQADDEADYYCSSYGSSSTHVIFGGGTKVTVLRTVAAPSVFIFPPSDEQLKSGTASVVCLLNNFYPREAKVQWKVDNALQSGNSQESVTEQDSKDSTYSLSSTLTLSKADYEKHKVYACEVTHQGLSSPVTKSFNRGEC | – | Kd [1]: 4100 nM; Kd [2]: 1200 nM; Kd (human recombinant FcRn): 74.6 nM; fold difference of KD against the wild-type lambda Mab control (recombinant human HER3 [3]): ≤ 1.5 fold; Kd (recombinant human HER3 [4]): 63 nM
EP6b_B01 wild-type lambda Fab (Fab, V domains shown, Truncated heavy chain (VH-CH1-upper IgG1 hinge, no His tag) and wild-type lambda light chain; also called WT) VH: QLQLQESGPGLVKPSETLSLTCTVSGASISANSYYGVWVRQSPGKGLEWVGSIAYRGNSNSGSTYYNPSLKSRATVSVDSSKNQVSLRLTSVTAADTALYYCARRQLLDDGTGYQWAAFDVWGQGTMVTVSS VL: QSVLTQPPSVSEAPRQTVTISCSGNSSNIGRYPVNWYQQLPGKAPKLLIYSDNLRFSGVPDRFSGSKSGTTASLAIRDLLSEDEADYYCSTWDDTLEGWVFGGGTKVTVLG | 0.0546 | –
EP6b_B01 designed Vlambda-Ckappa chimeric Fab, design 32 (E83I_D85T) (Fab, name in Kabat numbering, V domains shown) VH: QLQLQESGPGLVKPSETLSLTCTVSGASISANSYYGVWVRQSPGKGLEWVGSIAYRGNSNSGSTYYNPSLKSRATVSVDSSKNQVSLRLTSVTAADTALYYCARRQLLDDGTGYQWAAFDVWGQGTMVTVSS VL: QSVLTQPPSVSEAPRQTVTISCSGNSSNIGRYPVNWYQQLPGKAPKLLIYSDNLRFSGVPDRFSGSKSGTTASLAIRDLLSEDIATYYCSTWDDTLEGWVFGGGTKVTVLR | 0.0471 | –
EP6b_B01 designed Vlambda-Ckappa chimeric Fab, design 29 (E83V_D85T_T105E_V106I) (Fab, name in Kabat numbering, V domains shown) VH: QLQLQESGPGLVKPSETLSLTCTVSGASISANSYYGVWVRQSPGKGLEWVGSIAYRGNSNSGSTYYNPSLKSRATVSVDSSKNQVSLRLTSVTAADTALYYCARRQLLDDGTGYQWAAFDVWGQGTMVTVSS VL: QSVLTQPPSVSEAPRQTVTISCSGNSSNIGRYPVNWYQQLPGKAPKLLIYSDNLRFSGVPDRFSGSKSGTTASLAIRDLLSEDVATYYCSTWDDTLEGWVFGGGTKVEILR | 0.0479 | –
EP6b_B01 designed Vlambda-Ckappa chimeric Fab, design 34 (E83I_D85T_T105E_V106I) (Fab, name in Kabat numbering, V domains shown) VH: QLQLQESGPGLVKPSETLSLTCTVSGASISANSYYGVWVRQSPGKGLEWVGSIAYRGNSNSGSTYYNPSLKSRATVSVDSSKNQVSLRLTSVTAADTALYYCARRQLLDDGTGYQWAAFDVWGQGTMVTVSS VL: QSVLTQPPSVSEAPRQTVTISCSGNSSNIGRYPVNWYQQLPGKAPKLLIYSDNLRFSGVPDRFSGSKSGTTASLAIRDLLSEDIATYYCSTWDDTLEGWVFGGGTKVEILR | 0.0484 | –

Second part, led by results:

Kd [5] [nM] | Binder | also measured
0.0486 | EP6b_B01 designed Vlambda-Ckappa chimeric Fab, design 26 (E83V_D85T) (Fab, name in Kabat numbering, V domains shown) VH: QLQLQESGPGLVKPSETLSLTCTVSGASISANSYYGVWVRQSPGKGLEWVGSIAYRGNSNSGSTYYNPSLKSRATVSVDSSKNQVSLRLTSVTAADTALYYCARRQLLDDGTGYQWAAFDVWGQGTMVTVSS VL: QSVLTQPPSVSEAPRQTVTISCSGNSSNIGRYPVNWYQQLPGKAPKLLIYSDNLRFSGVPDRFSGSKSGTTASLAIRDLLSEDVATYYCSTWDDTLEGWVFGGGTKVTVLR | –
0.0492 | EP6b_B01 designed Vlambda-Ckappa chimeric Fab, design 37 (E83A_D85T) (Fab, name in Kabat numbering, V domains shown) VH: QLQLQESGPGLVKPSETLSLTCTVSGASISANSYYGVWVRQSPGKGLEWVGSIAYRGNSNSGSTYYNPSLKSRATVSVDSSKNQVSLRLTSVTAADTALYYCARRQLLDDGTGYQWAAFDVWGQGTMVTVSS VL: QSVLTQPPSVSEAPRQTVTISCSGNSSNIGRYPVNWYQQLPGKAPKLLIYSDNLRFSGVPDRFSGSKSGTTASLAIRDLLSEDAATYYCSTWDDTLEGWVFGGGTKVTVLR | –
